In patent US20250263490A1 (VIB VZW, published 2025):
Like-named read-outs stand apart in the source and are kept apart here. Each block holds one binder with its values, some of them ahead of it.

Experiments:
[1] = target: T1, recombinant human domain 1-3His6 of the cation-independent mannose-6-phosphate receptor (human, UniProt P11717 41-467); experiment: in-tandem competitive BLI, biotinylated hDom1-3His6 on SA sensors, purified VHH at 400 nM
T1 construct: Biotinylated (NHS-PEG4-biotin) for BLI; Glycosylated; also called hDom1-3His6; hCI-M6PRD1-D3

[2] = target: T1, recombinant human domain 1-3His6 of the …; experiment: ELISA on coated antigen (100 ng), anti-VHH-HRP, A450
Experimental: (§1) To determine the effect of site-directed mutations, an ELISA was performed. To this end, 100 ng of each successfully purified mutant was coated per well on Nunc Maxisorp plates in 50 mM MES, 150 mM NaCl, pH 6.5 buffer overnight at 4° C. […] Coating-only controls were included for background correction. […] Reactions were stopped after five minutes using a 2N H₂SO₄ solution and plates were read at 450 nm, with a 655 nm background correction. Data were analyzed using the GraphPad Prism 9 software.

[3] = target: T1, recombinant human domain 1-3His6 of the …; experiment: as above; remark: listed apart in the source
Experimental: as §1

[4] = target: T1, recombinant human domain 1-3His6 of the …; experiment: BLI at pH 7.4, 1st of 2 repeats
Experimental: (§2) For each of the 11 anti-CI-M6PR VHHs, a biolayer interferometry (BLI) experiment was performed in which the hDom₁₋₃His₆ was biotinylated and coupled to streptavidin biosensor tips. Afterwards, the tips were incubated with serially diluted VHHs during the association phase and dissociation was performed at pH 7.4. Similarly, dissociation was performed at pH 7.0, pH 6.0 and pH 5.0 as well after regeneration of the biosensor tips. […] The anti-CI-M6PR antibody (clone 2G11) and GBP were used as positive and negative controls, respectively.
(§3) Analysis of the binding kinetics was performed using an Octet Red96 (FortéBio) device with Streptavidin SA Biosensor tips (VWR 733-2145). Therefore, 1 mL of human domain₁₋₃His₆ (0.5 mg/mL in 50 mM MES, 150 mM NaCl, pH 6.5) was incubated at room temperature for 30 minutes with EZ-Link™ NHS-PEG4-Biotin (1 mg) (Thermo Fischer A39259) and NaHCO₃ (100 mM). Biotinylated human domain₁₋₃His₆ was purified using a Zeba spin desalting Column™ (7K MWCO, 2 mL, Thermo Fischer 89890) and 1 μg/mL was used for immobilization on the Streptavidin SA Biosensor tips. The loaded tips were dipped into a particular anti-CI-M6PR VHH solution, serially diluted in kinetics buffer (0.2M NaH₂PO₄, 0.1M Na⁺ citrate, 0.01% BSA, 0.002% Tween20, pH 7.4). This was followed by dissociation of the particular anti-CI-M6PR VHH in kinetics buffer of pH 7.4, followed by regeneration in Glycine (10 mM, pH 3) and neutralisation. Same cycle was repeated but the dissociation was performed at pH 7.0, 6.0, 5.0, 4.5 and 4.0. A reference well and reference sensors were subtracted from ligand sensors afterwards and Savitsky-Golay filtering was applied on the data. Fitting of the data was performed using a 1:1 model, grouped per pH of dissociation.

[5] = target: T1, recombinant human domain 1-3His6 of the …; experiment: ELISA on coated antigen, 2nd of 2 repeats
Experimental: (§4) FIGS. 4A-4B. Affinity of anti-CI-M6PR VHHs for recombinant human CI-M6PR Domain 1-3His₆ determined by ELISA. A & B. Measurements for each of the 11 anti-CI-M6PR VHHs in serial dilution binding to the coated human CI-M6PR Domain 1-3His₆ antigen. Detection was performed using an anti-VHH antibody coupled to HRP, and measured as the absorbance of the TMB substrate at 450 nm, correlating to the amount of bound VHH as plotted at the Y-axis. The Log₁₀ concentrations of the serially diluted VHHs were plotted at the X-axis. […] A & B represent replicates but using a different concentration of human CI-M6PR Domain 1-3His₆ (in (FIG. 4A): 0-0.75 μM and in (FIG. 4B): 0-1 μM).
(§5) We evaluated the affinity of the VHHs against the hDom₁₋₃His₆ using ELISA. Coated hDom₁₋₃His₆ was incubated with serially diluted VHH that was afterwards detected using an anti-VHH antibody, coupled to HRP.

[6] = target: T1, recombinant human domain 1-3His6 of the …; experiment: BLI exp 1, dissoc pH 7.4
Experimental: as §2, §3

[7] = target: T1, recombinant human domain 1-3His6 of the …; experiment: BLI exp 2, dissoc pH 6
Experimental: as §2
(§6) Analysis of the binding kinetics was performed using an Octet Red96 (FortéBio) device with Streptavidin SA Biosensor tips (VWR, 733-2145). To this end, 1 mL of hCI-M6PR_D1-D3 (0.5 mg/mL in 50 mM MES, 150 mM NaCl, pH 6.5) was incubated at room temperature for 30 minutes with a two-fold molar excesses of EZ-Link™ NHS-PEG₄-Biotin (Thermo Fischer, A39259) and NaHCO₃ (100 mM, pH 8.3). Biotinylated hCIMPR_D1-D3 was purified using a Zeba spin desalting column (Thermo Fischer, 89890) and protein concentration was calculated by measuring the absorbance at 280 nm (extinction coefficient 50320 M¹ cm⁻¹). Two-fold biotin-labelled antigen was loaded on the tips (2.5 μg/mL) and subsequently dipped into a particular anti-CI-M6PR VHH-containing solution (ranging from 0-100 nM). Serial VHH dilutions were made in kinetics buffer (0.2 M Na₂HPO₄, 0.1 M Na⁺ citrate, 0.01% BSA, 0.002% Tween20, pH 7.4). After association (100 sec), dissociation was conducted (500 sec) for each anti-CI-M6PR VHH in the kinetics buffer, followed by biosensor regeneration in glycine (10 mM, pH 3) and neutralisation. The same cycle was repeated with dissociation performed in kinetics buffer of pH 7.0, 6.5, 6.0, 5.5, and 5.0.
(§7) A reference well and reference sensors were subtracted from ligand sensors afterwards and Savitsky-Golay filtering was applied on the data. Fitting of the data was performed using a 1:1 model, grouped per dissociation pH.

[8] = target: T1, recombinant human domain 1-3His6 of the …; experiment: BLI exp 1, dissoc pH 6
Experimental: as §2, §3

[9] = target: T1, recombinant human domain 1-3His6 of the …; experiment: BLI exp 1, dissoc pH 7
Experimental: as §2, §3

[10] = target: T1, recombinant human domain 1-3His6 of the …; experiment: BLI exp 2, dissoc pH 5
Experimental: as §2, §6, §7

[11] = target: T1, recombinant human domain 1-3His6 of the …; experiment: BLI exp 1, dissoc pH 5
Experimental: as §2, §3

[12] = target: T1, recombinant human domain 1-3His6 of the …; experiment: ELISA on coated antigen, 1st of 2 repeats
Experimental: as §4, §5

[13] = target: T2, recombinant mouse domain 1-3His6 of CI-M6PR (mouse, UniProt Q07113 36-418); experiment: ELISA: coated mouse CI-M6PR Domain 1-3His6, serially diluted VHH, anti-VHH-HRP, TMB, Abs 450 nm; sigmoidal regression [table at the right]
T2 construct: Genbank NM_010515.2); Range includes the signal peptide; also called mDom1-3His6; mCI-M6PRD1-D3
Experimental: FIGS. 5A-5B. Affinity of anti-CI-M6PR VHHs for recombinant mouse CI-M6PR Domain 1-3His₆ determined by ELISA. (FIG. 5A) Measurement for each of the 11 anti-CI-M6PR VHHs in serial dilution binding to the coated mouse antigen. Detection was performed using an anti-VHH antibody coupled to HRP, and measured as the absorbance of the TMB substrate at 450 nm, correlating to the amount of bound VHH as plotted at the Y-axis. The Log₁₀ concentrations of the serially diluted VHHs were plotted at the X-axis.
To evaluate the cross-reactivity of the anti-CI-M6PR nanobodies between the human and mouse CI-M6PR domain 1-3His₆ antigen, ELISA was performed with the eleven serially diluted anti-CI-M6PR nanobodies. […] By performing sigmoidal regression on the derived absorbance curves, half-maximal effective concentration (EC₅₀) values of each VHH were acquired, representing the required concentration to occupy 50% of the coated antigen. As a negative control, GBP was included in the assay.

[14] = target: T1, recombinant human domain 1-3His6 of the …; experiment: BLI exp 2, dissoc pH 7

T2 sequence (Q07113 other isoform, or with tags, fused parts or gaps): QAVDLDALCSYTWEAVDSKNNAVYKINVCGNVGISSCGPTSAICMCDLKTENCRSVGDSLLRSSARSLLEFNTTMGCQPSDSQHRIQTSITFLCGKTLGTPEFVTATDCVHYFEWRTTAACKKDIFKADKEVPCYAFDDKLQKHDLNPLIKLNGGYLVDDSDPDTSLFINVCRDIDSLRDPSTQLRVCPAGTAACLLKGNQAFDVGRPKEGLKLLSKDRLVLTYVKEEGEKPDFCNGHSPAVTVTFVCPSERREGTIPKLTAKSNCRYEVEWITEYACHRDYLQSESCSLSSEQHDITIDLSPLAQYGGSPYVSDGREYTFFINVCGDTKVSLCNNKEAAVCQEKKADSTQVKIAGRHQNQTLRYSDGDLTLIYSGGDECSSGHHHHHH

B1: humanized VHH8 variant VHH8 h2 (VHH)
VHH: DVQLVESGGGLVQPGGSLRLSCAASGRTFNTYNWGWFRQAPGKEREFVAAIRWSSSKTSYADSVKGRFTISRDNSKNTVYLQMNSLRPEDTAVYYCAASIVDFTTNPSHFGSWGQGTLVTVSS
notes: made in E. coli
binding result [1]: binds

B2: humanized VHH8 variant VHH8 h1 (VHH)
VHH: EVQLVESGGGLVQPGGSLRLSCAASGRTFNTYNWGWFRQAPGKEREFVAAIRWSSSKTSYADSVKGRFTISRDNSKNTVYLQMNSLRPEDTAVYYCAASIVDFTTNPSHFGSWGQGTLVTVSS
notes: made in E. coli
binding result [1]: binds

B5: humanized VHH7 variant VHH7 h3 (VHH)
VHH: DVQLVESGGGLVQPGGSLRLSCAASGIIFSDNRMDWYRQAPGKQREWVATLASYGWKTYADSVKGRFTISRDNTKNTVYLQMNSLRPEDTAVYYCKASSPVLNDIWGQGTLVTVSS
notes: made in E. coli
binding result [1]: binds

B9: anti-CI-M6PR VHH2 (VHH)
VHH: QVQLQESGGGLVQPGGSLRLSCVFSGRTFMSYDVGWFRQAPGKERELLSSITSSSSSPYYAESVKGRFAVSRDGAKKTVYLRMNSLEPEDTAVYYCAARENWRNDWQYWGQTQVTVSS
notes: His6-tagged; made in Pichia pastoris
Kd [4]: 5.3 nM
koff [4]: 0.0036 s⁻¹
kon [4]: 679000 M⁻¹ s⁻¹
EC50 [5]: 0.177 nM
Kd [6]: 5.3 nM
koff [6]: 0.0036 s⁻¹
kon [6]: 679000 M⁻¹ s⁻¹
koff [7]: 0.0748 s⁻¹
kon [7]: 3.76e+06 M⁻¹ s⁻¹
Kd [8]: 5.96 nM
koff [8]: 0.00513 s⁻¹
kon [8]: 862000 M⁻¹ s⁻¹
Kd [9]: 24.2 nM
koff [9]: 0.0161 s⁻¹
kon [9]: 665000 M⁻¹ s⁻¹
koff [10]: 0.074 s⁻¹
kon [10]: 745000 M⁻¹ s⁻¹
Kd [11]: 10 nM
koff [11]: 0.00746 s⁻¹
kon [11]: 745000 M⁻¹ s⁻¹
EC50 [12]: 0.0608 nM
EC50 [13]: 104 nM
koff [14]: 0.0136 s⁻¹
kon [14]: 1.56e+06 M⁻¹ s⁻¹

Second part, the binder after the results:

binding result [1]: binds
B3: humanized VHH8 variant VHH8 h3 (VHH)
VHH: DVQLVESGGGLVQAGGSLRLSCAASGRTFNTYNWGWFRQAPGKEREFVAAIRWSSSKTSYADSVKGRFTISRDNSKNTVYLQMNSLRPEDTAVYYCAASIVDFTTNPSHFGSWGQGTLVTVSS
notes: made in E. coli

EC50 (read off the curve) [2]: ~3 nM
EC50 (read off the curve) [3]: ~3 nM
B4: humanized VHH8 variant VHH8hWN (VHH)
VHH: DVQLVESGGGLVQPGGSLRLSCAASGRTFNTYNWGWFRQAPGKEREFVAAIRWSSSKTSYADSVKGRFTISRDNAKNTIYLQMNSLRPEDTAVYYCAASIVDFTTNPSHFGSWGQGTLVTVSS
notes: His6-tagged, made in HEK293S

EC50 (read off the curve) [2]: ~0.5 nM
EC50 (read off the curve) [3]: ~0.5 nM
B6: humanized VHH7 variant VHH7hWN (VHH)
VHH: DVQLVESGGGLVQPGGSLRLSCAASGIIFSDNRMDWYRQAPGKQREWVATLASYGWKTYADSVKGRFTISRDNAKNTVYLQMNSLRPEDTAVYYCKASSPVLNDIWGQGTLVTVSS
notes: His6-tagged, made in HEK293S

binding result [1]: binds
B7: humanized VHH7 variant VHH7 h2 (VHH)
VHH: DVQLVESGGGLVQPGGSLRLSCAASGIIFSDNRMDWYRQAPGKQREWVATLASYGWKTYADSVKGRFTISRDNSKNTVYLQMNSLRPEDTAVYYCKASSPVLNDIWGQGTLVTVSS
notes: made in E. coli

binding result [1]: binds
B8: humanized VHH7 variant VHH7 h1 (VHH)
VHH: EVQLVESGGGLVQPGGSLRLSCAASGIIFSDNRMDWYRQAPGKQREWVATLASYGWKTYADSVKGRFTISRDNSKNTVYLQMNSLRPEDTAVYYCKASSPVLNDIWGQGTLVTVSS
notes: made in E. coli
